Measured values: patent publication US20250011363A1, “OPTIMIZED SHORTENED PEPTIDE THAT BINDS TO ACETYLCHOLINE RECEPTOR, AND USE THEREOF” (SKINMED CO., LTD., priority 2021, published 2025)

B1: 5mer-559 (peptide)
peptide: KQQLK
B2: 5mer-254 (peptide)
peptide: KLLRK
B3: 5mer-564 (peptide)
peptide: RSRYR
B4: 6mer-2-322 (peptide)
peptide: RRYSRR
B5: 6mer-2-332 (peptide)
peptide: RRQYKK
B6: 6mer-2-316 (peptide)
peptide: KGIRRR
B7: 6mer-2-317 (peptide)
peptide: RGLYKR
B8: 6mer-2-321 (peptide)
peptide: KLVSRK
B9: 6mer-2-315 (peptide)
peptide: RRQRRR
B10: 6mer-2-327 (peptide)
peptide: KGLRKR
B11: 6mer-2-331 (peptide)
peptide: RWVSKK
B12: 5mer-556 (peptide)
peptide: RVIYK
B13: 6mer-2-323 (peptide)
peptide: KVLLRK
B14: 6mer-2-318 (peptide)
peptide: RGIQKK
B15: 5mer-557 (peptide)
peptide: KQRRK
B16: 5mer-550 (peptide)
peptide: RQQSR
B17: 6mer-2-334 (peptide)
peptide: KVILRR
B18: 5mer-558 (peptide)
peptide: RWRYK
B19: 5mer-563 (peptide)
peptide: RLVLK
B20: 5mer-552 (peptide)
peptide: RLYSR
B21: 5mer-565 (peptide)
peptide: RLVSK
B22: 5mer-551 (peptide)
peptide: RWQYR
B23: 6mer-2-325 (peptide)
peptide: RVFSRK
B24: 5mer-566 (peptide)
peptide: KQLYK
B25: 5mer-255 (peptide)
peptide: KQRTR
B26: 6mer-2-330 (peptide)
peptide: KQLRKK
B27: 5mer-249 (peptide)
peptide: RSYCR
B28: 6mer-2-329 (peptide)
peptide: RVYTKR
B29: 5mer-257 (peptide)
peptide: RQFTR
B30: 5mer-561 (peptide)
peptide: KWRCK
B31: 5mer-555 (peptide)
peptide: KVQCK
B32: 5mer-250 (peptide)
peptide: RQFSR
B33: 5mer-261 (peptide)
peptide: RRVLR
B34: 6mer-2-326 (peptide)
peptide: RGFYKK
B35: 6mer-2-333 (peptide)
peptide: KRFRRK
B36: 6mer-2-319 (peptide)
peptide: RSRQRK
B37: 5mer-251 (peptide)
peptide: KRISK
B38: 5mer-259 (peptide)
peptide: RLIRK
B39: 5mer-264 (peptide)
peptide: KWYRK
B40: 5mer-252 (peptide)
peptide: KQYRK
B41: 5mer-560 (peptide)
peptide: KWYQR
B42: 5mer-266 (peptide)
peptide: KSYQK
B43: 5mer-256 (peptide)
peptide: RGVCK
B44: 6mer-2-324 (peptide)
peptide: KLQSRK
B45: 5mer-562 (peptide)
peptide: RVRQR
B46: 6mer-2-320 (peptide)
peptide: RQYRRK
B47: 5mer-265 (peptide)
peptide: RWQCR
B48: 5mer-258 (peptide)
peptide: KRQYK
B49: 5mer-553 (peptide)
peptide: KLLSR
B50: 6mer-2-328 (peptide)
peptide: KRYQRK
B51: 6mer-2-314 (peptide)
peptide: KQYCKK
B52: 5mer-253 (peptide)
peptide: RSLYR
B53: 5mer-262 (peptide)
peptide: KSRCR
B54: 5mer-260 (peptide)
peptide: KVYRR
B55: 5mer-263 (peptide)
peptide: KQVTR
B56: 5mer-549 (peptide)
peptide: KWITK
B57: 5mer-554 (peptide)
peptide: RLLSK

The binders below were run against acetylcholine receptor (assay: SPR, AchR immobilised on chip, peptide at 10 uM).

Row | Binding affinity (RU) | Binding affinity | SPR binding response | Binder
1 | 81 RU |  |  | B1
2 | 87 RU |  |  | B2
3 | 74 RU |  |  | B3
4 |  | 148 RU |  | B4
5 |  | 145 RU |  | B5
6 |  | 139 RU |  | B6
7 |  | 135 RU |  | B7
8 |  | 139 RU |  | B8
9 |  | 139 RU |  | B9
10 |  | 153 RU |  | B10
11 |  | 148 RU |  | B11
12 | 52 RU |  |  | B12
13 |  | 145 RU |  | B13
14 |  | 145 RU |  | B14
15 | 87 RU |  |  | B15
16 | 83 RU |  |  | B16
17 |  | 146 RU |  | B17
18 | 84 RU |  |  | B18
19 | 60 RU |  |  | B19

Row | Binding affinity (RU) | Binding affinity | SPR binding response | Binder
20 | 63 RU |  |  | B20
21 | 77 RU |  |  | B21
22 | 59 RU |  |  | B22
23 |  | 142 RU |  | B23
24 | 78 RU |  |  | B24
25 | 82 RU |  |  | B25
26 |  | 139 RU |  | B26
27 | 52 RU |  |  | B27
28 |  | 142 RU |  | B28
29 | 85 RU |  |  | B29
30 | 72 RU |  |  | B30
31 | 71 RU |  |  | B31
32 | 76 RU |  |  | B32
33 | 59 RU |  |  | B33
34 |  | 142 RU |  | B34
35 |  | 139 RU |  | B35
36 |  | 137 RU |  | B36
37 | 70 RU |  |  | B37
38 | 71 RU |  |  | B38

Row | Binding affinity (RU) | Binding affinity | SPR binding response | Binder
39 | 50 RU |  |  | B39
40 | 53 RU |  |  | B40
41 | 59 RU |  |  | B41
42 | 66 RU |  |  | B42
43 | 60 RU |  |  | B43
44 |  | 139 RU |  | B44
45 | 70 RU |  |  | B45
46 |  | 148 RU |  | B46
47 | 77 RU |  |  | B47
48 | 84 RU |  |  | B48
49 | 72 RU |  |  | B49
50 |  | 131 RU |  | B50
51 |  | 127 RU |  | B51
52 | 75 RU |  |  | B52
53 | 59 RU |  |  | B53
54 | 57 RU |  |  | B54
55 | 80 RU |  |  | B55
56 |  |  | 78 RU | B56
57 | 65 RU |  |  | B57
